Measurements taken from patent publication US20260201347A1, “ARTIFICIAL BIFUNCTIONAL ENZYME COMPRISING A MYELOPEROXIDASE ACTIVITY AND A GLUCOSE OXIDASE ACTIVITY AND APPLICATIONS THEREOF” (UNIVERSITÉ DE BORDEAUX, priority 2022, published 2026).
Numbering of substitutions follows the chain as printed. Values joined by “and” are separate entries in the source; they are usually repeats but may differ in a detail not shown here. Equal entries are not always repeated.

Experiments:
Assay type in all cases: biochemical, Rhodopirellula baltica / Penicillium amagasakiens
[1] = substrate: OC[C@H]1OC(O)[C@H](O)[C@@H](O)[C@@H]1O; assay: Coupled active sites, HOCl production from glucose, APF assay (Table 9), linker LEKREAEALEKREAEA; details: fixed NaCl 20 mM, pH7.5, pH 7.5
Description: (§1) Each experiment was performed in triplicate.
(§2) The activity of the two active sites was then assessed in conjunction to each other (FIG. 1).
(§3) Briefly, the aim was to measure the production of HOCl from glucose and NaCl as respective substrates of the enzymes, using the APF probe. Two types of kinetics were performed: • i) kinetics at various concentrations of glucose and a fixed concentration of NaCl, and • ii) kinetics at various concentration of NaCl and a fixed concentration of glucose.

[2] = substrate: OC[C@H]1OC(O)[C@H](O)[C@@H](O)[C@@H]1O; assay: Coupled active sites, HOCl production from glucose, APF assay (Table 9), linker LEKREAEA; details: other: trimer; fixed NaCl 20 mM, pH7.5; pH 7.5
Description: as §1, §2, §3

[3] = substrate: OC[C@H]1OC(O)[C@H](O)[C@@H](O)[C@@H]1O; assay: Coupled active sites, HOCl production from glucose, APF assay (Table 9), linker LGKRGAGA; details: fixed NaCl 20 mM, pH7.5, pH 7.5
Description: as §1, §2, §3

[4] = substrate: OC[C@H]1OC(O)[C@H](O)[C@@H](O)[C@@H]1O; assay: Coupled active sites, HOCl production from glucose, all other chimeras; details: glucose as substrate, pH 7.5
Description: as §1, §2, §3

B1: RbMPO-LEKREAEALEKREAEA-GOx chimera (Rhodopirellula baltica myeloperoxidase, SEQ ID NO: 10; linker SEQ ID NO: 6; Penicillium amagasakiens glucose oxidase, SEQ … (protein)
chain: MLFWSKRTRKHPGRKRRRLRSEQLESRQLLAADFGGYRHNIYDAEDVNDDGRVSAIDALLVINAMTSETSRDENVFTDVNGDGRRSALDALRVINRIERGDVFPIDTSGDEDLNTLLPEMPSEVRSIDGSGNNPNDHLWGSVGQRLIRMAPAAYGDGISTLAGANRPSAREVSNVLSAMNTSQVLNDRGLSAFVYVWGQFIDHDLGLTESDEHGEAIDISVPEGDLWFDPMGSGEAVIPMTRTPIADGTGTSVGNPAQQFNQITAFIDGSMVYGSDAATAERLRTFAGGRLAISDNGLLPMDESGMVIAGDVRASENVGLTAIQTLFVREHNRLADEIFAADPEATDEEIYQRARLVVASLIQSITYNEFLPALLGQRAMDSYRGYDASVNPGIANEFSTAAFRLGHSTLRDEVGFMSNDGRESKDEMELKDAFFHASMLEETGIDSLLKFDASVQAQEIDLAVVDSLRNFLFGPPGAGGLDLVAMNIQRGRDHGLSDYNTTRQAYGLDRVETFDQITGDVELQQKLASLYGTVDNIDLWVGLMAEDHQHDASVGELTGLIIADQFQRTRDGDRFFYKNVLTDSEVESIERSTLADLIERNTSVDGLQENVFFMQVELRGRVILASSIPPNTMPSEVREEEIRGVSGMAIELIDASGKLVDSTVSDQHGNYRFRALSETGDYQVRLSESGEAMDVLVAHGAERIRGLDFIVLALEKREAEALEKREAEAYLPAQQIDVQSSLLSDPSKVAGKTYDYIIAGGGLTGLTVAAKLTENPKIKVLVIEKGFYESNDGAIIEDPNAYGQIFGTTVDQNYLTVPLINNRTNNIKAGKGLGGSTLINGDSWTRPDKVQIDSWEKVFGMEGWNWDNMFEYMKKAEAARTPTAAQLAAGHSFNATCHGTNGTVQSGARDNGQPWSPIMKALMNTVSALGVPVQQDFLCGHPRGVSMIMNNLDENQVRVDAARAWLLPNYQRSNLEILTGQMVGKVLFKQTASGPQAVGVNFGTNKAVNFDVFAKHEVLLAAGSAISPLILEYSGIGLKSVLDQANVTQLLDLPVGINMQDQTTTTVSSRASSAGAGQGQAVFFANFTETFGDYAPQARDLLNTKLDQWAEETVARGGFHNVTALKVQYENYRNWLLDEDVAFAELFMDTEGKINFDLWDLIPFTRGSVHILSSDPYLWQFANDPKFFLNEFDLLGQAAASKLARDLTSQGAMKEYFAGETLPGYNLVQNATLSQWSDYVLQNFRPNWHAVSSCSMMSRELGGVVDATAKVYGTQGLRVIDGSIPPTQVSSHVMTIFYGMALKVADAILDDYAKSA
notes: 6His (in the pET21a vector behind the XhoI site); made in house; host or cells: E. coli BL21Star (DE3)
Km ([1]; other: dimer/monomer): 2020 ± 1070 µM
Km ([1]; other: excluded): 14170 ± 4620 µM
kcat ([1]; other: excluded): 0.00015 s⁻¹
kcat/Km ([1]; other: excluded): 0.01 ± 0.004 M⁻¹ s⁻¹
Km ([1]; other: trimer): 770 ± 500 µM
kcat ([1]; other: trimer): 0.00137 s⁻¹
kcat/Km ([1]; other: trimer): 1.7 ± 1.34 M⁻¹ s⁻¹ and 1.77 M⁻¹ s⁻¹

B2: RbMPO-LEKREAEA-GOx chimera (Rhodopirellula baltica myeloperoxidase, SEQ ID NO: 10; linker SEQ ID NO: 7; Penicillium amagasakiens glucose oxidase, SEQ ID NO: … (protein)
chain: MLFWSKRTRKHPGRKRRRLRSEQLESRQLLAADFGGYRHNIYDAEDVNDDGRVSAIDALLVINAMTSETSRDENVFTDVNGDGRRSALDALRVINRIERGDVFPIDTSGDEDLNTLLPEMPSEVRSIDGSGNNPNDHLWGSVGQRLIRMAPAAYGDGISTLAGANRPSAREVSNVLSAMNTSQVLNDRGLSAFVYVWGQFIDHDLGLTESDEHGEAIDISVPEGDLWFDPMGSGEAVIPMTRTPIADGTGTSVGNPAQQFNQITAFIDGSMVYGSDAATAERLRTFAGGRLAISDNGLLPMDESGMVIAGDVRASENVGLTAIQTLFVREHNRLADEIFAADPEATDEEIYQRARLVVASLIQSITYNEFLPALLGQRAMDSYRGYDASVNPGIANEFSTAAFRLGHSTLRDEVGFMSNDGRESKDEMELKDAFFHASMLEETGIDSLLKFDASVQAQEIDLAVVDSLRNFLFGPPGAGGLDLVAMNIQRGRDHGLSDYNTTRQAYGLDRVETFDQITGDVELQQKLASLYGTVDNIDLWVGLMAEDHQHDASVGELTGLIIADQFQRTRDGDRFFYKNVLTDSEVESIERSTLADLIERNTSVDGLQENVFFMQVELRGRVILASSIPPNTMPSEVREEEIRGVSGMAIELIDASGKLVDSTVSDQHGNYRFRALSETGDYQVRLSESGEAMDVLVAHGAERIRGLDFIVLALEKREAEAYLPAQQIDVQSSLLSDPSKVAGKTYDYIIAGGGLTGLTVAAKLTENPKIKVLVIEKGFYESNDGAIIEDPNAYGQIFGTTVDQNYLTVPLINNRTNNIKAGKGLGGSTLINGDSWTRPDKVQIDSWEKVFGMEGWNWDNMFEYMKKAEAARTPTAAQLAAGHSFNATCHGTNGTVQSGARDNGQPWSPIMKALMNTVSALGVPVQQDFLCGHPRGVSMIMNNLDENQVRVDAARAWLLPNYQRSNLEILTGQMVGKVLFKQTASGPQAVGVNFGTNKAVNFDVFAKHEVLLAAGSAISPLILEYSGIGLKSVLDQANVTQLLDLPVGINMQDQTTTTVSSRASSAGAGQGQAVFFANFTETFGDYAPQARDLLNTKLDQWAEETVARGGFHNVTALKVQYENYRNWLLDEDVAFAELFMDTEGKINFDLWDLIPFTRGSVHILSSDPYLWQFANDPKFFLNEFDLLGQAAASKLARDLTSQGAMKEYFAGETLPGYNLVQNATLSQWSDYVLQNFRPNWHAVSSCSMMSRELGGVVDATAKVYGTQGLRVIDGSIPPTQVSSHVMTIFYGMALKVADAILDDYAKSA
notes: as for B1
Km [2]: 10620 ± 8250 µM
kcat [2]: 0.000109 s⁻¹
kcat/Km [2]: 0.01 ± 0.011 M⁻¹ s⁻¹

B3: RbMPO-LGKRGAGA-GOx chimera (Rhodopirellula baltica myeloperoxidase, SEQ ID NO: 10; linker SEQ ID NO: 5; Penicillium amagasakiens glucose oxidase, SEQ ID NO: … (protein)
chain: B2 chain with E715G, E718G, E720G
notes: as for B1
Km ([3]; other: dimer/monomer): 66900 ± 24100 µM
kcat ([3]; other: dimer/monomer): 0.00305 s⁻¹
kcat/Km ([3]; other: dimer/monomer): 0.046 ± 0.025 M⁻¹ s⁻¹
Km ([3]; other: excluded): 2270 ± 1300 µM
kcat ([3]; other: excluded): 0.00133 s⁻¹
kcat/Km ([3]; other: excluded): 0.586 ± 0.384 M⁻¹ s⁻¹
Km ([3]; other: trimer): 2022 ± 644 µM
kcat ([3]; other: trimer): 0.0022 s⁻¹
kcat/Km ([3]; other: trimer): 1.09 ± 0.801 M⁻¹ s⁻¹

B4: RbMPO-GOx chimeras, all other chimeras (Penicillium amagasakiense) (protein)
chain: YLPAQQIDVQSSLLSDPSKVAGKTYDYIIAGGGLTGLTVAAKLTENPKIKVLVIEKGFYESNDGAIIEDPNAYGQIFGTTVDQNYLTVPLINNRTNNIKAGKGLGGSTLINGDSWTRPDKVQIDSWEKVFGMEGWNWDNMFEYMKKAEAARTPTAAQLAAGHSFNATCHGTNGTVQSGARDNGQPWSPIMKALMNTVSALGVPVQQDFLCGHPRGVSMIMNNLDENQVRVDAARAWLLPNYQRSNLEILTGQMVGKVLFKQTASGPQAVGVNFGTNKAVNFDVFAKHEVLLAAGSAISPLILEYSGIGLKSVLDQANVTQLLDLPVGINMQDQTTTTVSSRASSAGAGQGQAVFFANFTETFGDYAPQARDLLNTKLDQWAEETVARGGFHNVTALKVQYENYRNWLLDEDVAFAELFMDTEGKINFDLWDLIPFTRGSVHILSSDPYLWQFANDPKFFLNEFDLLGQAAASKLARDLTSQGAMKEYFAGETLPGYNLVQNATLSQWSDYVLQNFRPNWHAVSSCSMMSRELGGVVDATAKVYGTQGLRVIDGSIPPTQVSSHVMTIFYGMALKVADAILDDYAKSA
notes: pET21a, E. coli; heme and FAD reconstituted; GOx mature part (P81156 19-605)
kcat/Km [4]: 1 M⁻¹ s⁻¹
